Reference: patent CN111494645A (UNIV CHINA PHARMA, dated 2020)

Tests used:
[1] = molecular target: T1, 人DLL4抗原 (human, UniProt Q9NR61 27-524, limits assumed); assay: ELISA, DLL4 antigen coated at 1 μg/mL, antibody titrated 0-1000 nM, HRP secondary, OD450-OD630
T1 construct: also called Delta like 4

[2] = molecular target: T1, 人DLL4抗原; assay: ELISA, DLL4 antigen coated at 1 μg/mL, conjugate titrated 0-1000 nM, HRP secondary, OD450-OD630

T1 sequence (Q9NR61 27-524 limits assumed): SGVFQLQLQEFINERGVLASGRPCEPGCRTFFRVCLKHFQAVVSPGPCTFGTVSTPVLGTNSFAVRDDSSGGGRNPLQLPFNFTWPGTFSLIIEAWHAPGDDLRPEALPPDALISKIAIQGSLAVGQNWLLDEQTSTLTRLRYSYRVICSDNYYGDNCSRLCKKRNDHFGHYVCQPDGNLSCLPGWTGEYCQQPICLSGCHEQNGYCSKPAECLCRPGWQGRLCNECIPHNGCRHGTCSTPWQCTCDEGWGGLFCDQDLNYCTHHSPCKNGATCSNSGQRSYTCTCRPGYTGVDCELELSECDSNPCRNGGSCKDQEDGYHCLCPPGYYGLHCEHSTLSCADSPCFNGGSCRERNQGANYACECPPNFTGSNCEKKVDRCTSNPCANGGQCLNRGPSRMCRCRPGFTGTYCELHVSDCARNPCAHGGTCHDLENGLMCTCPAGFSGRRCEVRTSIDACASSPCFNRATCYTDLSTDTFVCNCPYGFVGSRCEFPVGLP

B1: 抗人DLL4人源化抗体H3L2 (antibody)
heavy: not shown
light: EIVITQSPDFQSVTPKEKVTITCSVSSSISSSYLHWYQQKPDQSPKPWIYGTSNLASGVPSRFSGSGSGTDYTLTINSLEAEDAATYYCQQWSSSPLTFGQGTKLEIKVDTVAAPSVFIFPPSDEQLKSGTASVVCLLNNFYPREAKVQWKVDNALQSGNSQESVTEQDSKDSTYSLSSTLTLSKADYEKHKVYACEVTHQGLSSPVTKSFNRGEC
notes: IgG1 humanized antibody; also called 裸抗
Q: With B1 as the binder, how does the EC50 [1] read?
A: The EC50 was 49.2 nM.

B2: 抗人DLL4人源化抗体THL4与美登素生物碱DM1的偶联物HLmD4 (THL4-mpeo-DM1) (antibody, human IgG1, kappa, DAR 3.96)
heavy: not shown
light: EIVITQSPDFQSVTPKEKVTITCSVSSSISSSYLHWYQQKPDQSPKPWIYGTSNLASGVPSRFSGSGSGTDYTLTINSLEAEDAATYYCQQWSSSPLTFGQGTKLEIKVDTVAAPSVFIFPPSDEQLKSGTASVVCLLNNFYPREAKVQWKVDNALQSGNSQESVTEQDSKDSTYSLSSTLTLSKADYEKHKVYACEVTHQGLSSPCTKSFNRGEC
modifications: DM1 coupled through the BMPEO linker (mpeo-DM1) to the engineered Cys at light chain position 207 (V207C); DM1 coupled through the BMPEO linker (mpeo-DM1) to the engineered Cys at heavy chain position 121 (K121C)
notes: Antibody-drug conjugate of the IgG1 antibody THL4 (H3L2 with light chain V207C and heavy chain K121C) with DM1; average DAR 3.96 by HPLC; also called 抗体药物偶联物HLmD4
Q: For B2, which EC50 [2] is on record?
A: The EC50 was 42.6 nM.
